The target of the data set is T1, alpha-fetoprotein (AFP) (UniProt P02771 19-609).
T1 sequence: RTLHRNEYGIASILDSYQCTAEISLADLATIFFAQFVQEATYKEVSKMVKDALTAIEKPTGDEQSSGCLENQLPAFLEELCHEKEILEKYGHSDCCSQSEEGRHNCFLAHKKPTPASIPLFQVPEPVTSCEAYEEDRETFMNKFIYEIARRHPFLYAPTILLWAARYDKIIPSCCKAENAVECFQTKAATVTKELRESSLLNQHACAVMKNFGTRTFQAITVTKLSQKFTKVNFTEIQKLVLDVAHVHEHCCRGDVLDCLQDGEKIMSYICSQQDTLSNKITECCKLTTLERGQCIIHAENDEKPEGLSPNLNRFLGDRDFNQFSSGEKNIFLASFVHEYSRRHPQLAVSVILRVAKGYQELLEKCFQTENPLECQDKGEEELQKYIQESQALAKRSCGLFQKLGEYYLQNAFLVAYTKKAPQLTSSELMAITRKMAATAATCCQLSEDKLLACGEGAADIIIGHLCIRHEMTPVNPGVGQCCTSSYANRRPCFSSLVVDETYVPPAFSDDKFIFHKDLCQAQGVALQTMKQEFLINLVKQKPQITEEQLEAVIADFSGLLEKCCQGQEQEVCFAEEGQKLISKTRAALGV
The experiment in a line: electrochemical aptasensor (DPV, CV, EIS; Fe(CN)6 3-/4- probe); immobilized aptamer, BSA-blocked; linear 1 pg/mL-1 ug/mL, LOD 0.31 pg/mL (not a Kd); AFP incubated 1 h at 4 C on aptamer electrode, rinsed with 0.01 M PBS (sodium phosphate) pH 7.4; read-out in 2.5 mM K3/K4[Fe(CN)6], 0.1 M KCl. Particulars: protein: commercial.

B1: AFP aptamer (ssDNA)
DNA: GTGACGCTCCTAACGCTGACTCAGGTGCAGTTCTCGACTCGGTCTTGATGTGGGTCCTGTCCGTCCGAACCAATC
modifications: 5'-NH2, coupled to GPTMS epoxy groups on mesoporous silica film
For B1, the binding result was “binds”.

These data come from publication PMC10296332, “Vertically-Ordered Mesoporous Silica Film Based Electrochemical Aptasensor for Highly Sensitive Detection of Alpha-Fetoprotein in Human Serum”.
